From US8529881B2, “Peptides for active anti-cytokine immunization” (Vaxconsulting, priority 2002, dated 2013) come the findings set out here.

Assay [1] has as its target human IL10 (native cytokine) (Homo sapiens, UniProt P22301). The experiment in a line: ELISA of serum from immunized mice with native IL10. The note with it: serum day 60. It counts as in vivo. (In an ELISA, binding on a coated surface is turned into a signal by an enzyme label.)
Assay [2] concerns the target T1, human TGFβ2 (native cytokine) (Homo sapiens, UniProt P61812).
T1 sequence (P61812 303-414 limits assumed): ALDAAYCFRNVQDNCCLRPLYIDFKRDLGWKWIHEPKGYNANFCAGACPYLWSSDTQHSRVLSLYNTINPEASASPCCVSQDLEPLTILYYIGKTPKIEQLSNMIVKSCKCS
The experiment in a line: ELISA of serum from immunized mice with native TGFβ2. It counts as in vivo. To be noted: serum day 60.

The target in assay [3] is human IL12p40 (native cytokine) (Homo sapiens, UniProt P29460). The note with it: in vivo.
Chain of human IL12p40 (native cytokine) (P29460 23-328): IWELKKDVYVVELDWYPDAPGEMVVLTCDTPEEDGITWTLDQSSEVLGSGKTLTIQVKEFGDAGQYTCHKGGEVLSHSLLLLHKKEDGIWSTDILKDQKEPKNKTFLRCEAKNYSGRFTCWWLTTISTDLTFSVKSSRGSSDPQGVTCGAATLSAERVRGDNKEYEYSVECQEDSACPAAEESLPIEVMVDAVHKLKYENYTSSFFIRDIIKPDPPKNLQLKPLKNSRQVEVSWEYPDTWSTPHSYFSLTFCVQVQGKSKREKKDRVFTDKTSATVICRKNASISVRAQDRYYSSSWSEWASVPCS
For assay [4], the target named is T2, human IP10 (native cytokine) (Homo sapiens, UniProt P02778).
T2 sequence (P02778 22-98): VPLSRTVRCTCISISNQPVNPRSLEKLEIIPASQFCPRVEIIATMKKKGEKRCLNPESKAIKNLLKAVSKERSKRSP
The experiment in a line: ELISA of serum from immunized mice with native IP10. Type of assay: in vivo. The note with it: serum day 60.

For assay [5], the target named is human IFNγ (native cytokine) (Homo sapiens, UniProt P01579). To be noted: in vivo.
Chain of human IFNγ (native cytokine) (P01579 24-161): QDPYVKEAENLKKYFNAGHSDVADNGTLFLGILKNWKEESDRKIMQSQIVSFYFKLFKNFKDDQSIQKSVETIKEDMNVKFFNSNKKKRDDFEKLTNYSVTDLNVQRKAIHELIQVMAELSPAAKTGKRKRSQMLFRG
In assay [6] the test system is IFNγ (native cytokine). It counts as cell-based, human.
In assay [7] the target is T3, human IL5 (native cytokine) (Homo sapiens, UniProt P05113).
T3 sequence (P05113 20-134): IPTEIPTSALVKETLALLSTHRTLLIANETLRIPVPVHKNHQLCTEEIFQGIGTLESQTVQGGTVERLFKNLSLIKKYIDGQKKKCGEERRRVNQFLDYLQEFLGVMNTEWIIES
Briefly: ELISA of serum from immunized mice with native IL5. It counts as in vivo. The note with it: serum day 60.

Assay [8] relates to human vEGF (native cytokine). Briefly: ELISA of serum from immunized mice with native vEGF. To be noted: serum day 60. It counts as in vivo.
In assay [9] the target is T4, human IL4 (native cytokine) (Homo sapiens, UniProt P05112).
T4 sequence (P05112 25-153): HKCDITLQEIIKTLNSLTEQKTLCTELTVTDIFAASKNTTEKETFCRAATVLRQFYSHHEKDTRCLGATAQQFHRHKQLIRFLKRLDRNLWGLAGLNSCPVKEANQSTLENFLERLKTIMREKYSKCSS
Briefly: ELISA of serum from immunized mice with native IL4. It counts as in vivo. The note with it: serum day 60.

For assay [10], the target named is T5, human IL18 (native cytokine) (Homo sapiens, UniProt Q14116).
T5 sequence (Q14116 37-193): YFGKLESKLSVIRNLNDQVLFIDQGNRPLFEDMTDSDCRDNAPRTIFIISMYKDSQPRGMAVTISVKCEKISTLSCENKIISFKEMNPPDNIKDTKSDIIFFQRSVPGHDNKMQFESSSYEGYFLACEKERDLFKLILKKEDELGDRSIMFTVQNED
Briefly: ELISA of serum from immunized mice with native IL18. It counts as in vivo. The note with it: serum day 60.

For assay [11], the target named is human TNFα (native cytokine) (Homo sapiens, UniProt P01375). The experiment in a line: ELISA of serum from immunized mice with native TNFα. Type of assay: in vivo. The note with it: serum day 60.
Chain of human TNFα (native cytokine) (P01375 77-233 limits assumed): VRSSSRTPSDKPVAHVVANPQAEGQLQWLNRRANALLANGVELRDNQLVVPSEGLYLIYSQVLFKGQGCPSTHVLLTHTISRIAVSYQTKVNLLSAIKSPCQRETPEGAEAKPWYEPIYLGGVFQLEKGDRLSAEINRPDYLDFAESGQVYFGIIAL
The target of assay [12] is native TNFα cytokine (Homo sapiens, UniProt P01375). The experiment in a line: Neutralization of native TNFα by mouse serum, lysis of L929 cells. To be noted: for percentage inhibition of the lysis (neutralization of the TNFα): 50 units TNFα, 24 hours. It counts as cell-based. As for the experimental part:
The existence of antibodies neutralizing the native cytokine was evaluated as follows: 50 units of native TNFα cytokine are preincubated with serum from mice (immunized or control) diluted 1/200th over 2 hours at 37° C. The whole is then added to L929 cells, with 25,000 cells per microwell. The lysis of the cells is evaluated after 24 hours by staining with naphthol blue black (Sigma).

Several values for one entry are separate records, joined by “and”; a condition that tells them apart may be missing. Identical values can stand only once. Positions of bridges follow the written chain, without caps; N, C: chain ends. No end group written: not given here.

Chain of human IL10 (native cytokine) (P22301 19-178): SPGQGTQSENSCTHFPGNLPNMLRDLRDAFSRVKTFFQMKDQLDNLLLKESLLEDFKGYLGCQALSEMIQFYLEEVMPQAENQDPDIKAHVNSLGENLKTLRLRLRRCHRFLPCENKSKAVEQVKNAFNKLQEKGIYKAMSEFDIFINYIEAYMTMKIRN
Chain of native TNFα cytokine (P01375 77-233 limits assumed): as the sequence (P01375 77-233 limits assumed) above

As for “DECNMLRDLRDAFSRVKTFFQMKDQLDNC (disulfide 3-29 (inferred); also: KLH conjugate; listed as Homo sapiens) [Example 5, cyclic peptide originating from human IL10 coupled with KLH]”, the “average absorbance, ELISA native IL10” value in assay [1] (Average of 5 mice) is listed as 1.44; in assay [1] (Mouse 1), 1.94; in [1] (Mouse 2) it was 0.96; in [1] (Mouse 3), 1.85; in assay [1] (Mouse 4), 0.97; in assay [1] (Mouse 5), 1.5.
In the case of “DTILYYIGKTPKIE (also: KLH conjugate via carbodiimide; listed as Homo sapiens) [Example 11, peptide corresponding to human TGFβ2, D added, coupled with KLH]”, the “average absorbance, ELISA native TGFβ2” value in assay [2] (Average of 5 mice) stood at 1.07; in assay [2] (Mouse 1), 0.95; in assay [2] (Mouse 2) it was 1.15; in assay [2] (Mouse 3), 0.99; in assay [2] (Mouse 4), 1.17; in assay [2] (Mouse 5) it was 1.08.
Regarding KKEDGIWSTDILKDQKEPKNKTFLRCE [Example 7], the “average absorbance, ELISA native IL12p40” value in [3] is 0.95 and 1.06 and 1.58 and 1.14 and 0.87 and 1.12.
In the case of KKKGEKRCLNPESKA [Example 9], the “average absorbance, ELISA native IP10” value in assay [4] (Average of 5 mice) is 1.07; in [4] (Mouse 1), 1.16; in assay [4] (Mouse 2) it was 0.98; in [4] (Mouse 3) it was 1.24; in assay [4] (Mouse 4), 1.09; in assay [4] (Mouse 5), 0.88.
Turning to KKYFNAGHSDVADNGTLFLGILKN [Example 4], the “average absorbance, ELISA native IFNγ” value in assay [5] is 1.56 and 1.05 and 0.98 and 1.80 and 1.64 and 1.41. Moreover, the “neutralization of the IFNγ, result in words” value in assay [6] is recorded as “inhibitions are observed for the immunized mice”.
In the case of “KLQEFLGVMNTEWI (also: KLH conjugate via glutaraldehyde; listed as Homo sapiens) [Example 10, peptide corresponding to human IL5, K added, coupled with KLH]”, the “average absorbance, ELISA native IL5” value in assay [7] (Average of 5 mice) was determined as 1.26; in assay [7] (Mouse 1) it was 1.25; in assay [7] (Mouse 2), 1.21; in assay [7] (Mouse 3), 1.87; in [7] (Mouse 4), 1.10; in assay [7] (Mouse 5), 0.88.
As for “KPHQGQHIGEMS (also: KLH conjugate via glutaraldehyde; listed as Homo sapiens) [Example 2, synthetic peptide originating from human vEGF coupled to KLH]”, the “average absorbance, ELISA native vEGF” value is 1.19 in [8] (Average of 5 mice); 1.50 in assay [8] (Mouse 1); 1.00 in assay [8] (Mouse 2); 0.86 in assay [8] (Mouse 3); 0.98 in assay [8] (Mouse 4); 1.63 in [8] (Mouse 5).
On to “KQLIRFLKRLDRNLWGLAG (also: KLH conjugate via glutaraldehyde; listed as Homo sapiens) [Example 6, peptide corresponding to human IL4 coupled with KLH]”, for which the “average absorbance, ELISA native IL4” value in assay [9] (Average of 5 mice) amounted to 1.07; in assay [9] (Mouse 1) it was 1.06; in assay [9] (Mouse 2), 1.25; in [9] (Mouse 3), 0.95; in assay [9] (Mouse 4) it was 0.87; in [9] (Mouse 5), 1.24.
For “KYFGKLESKLSVIRNLNDQVLFID (also: KLH conjugate via glutaraldehyde; listed as Homo sapiens) [Example 8, peptide originating from human IL18, K added, coupled with KLH]”, the “average absorbance, ELISA native IL18” value is 1.35 in [10] (Average of 5 mice); 1.85 in assay [10] (Mouse 1); 1.13 in [10] (Mouse 2); 0.99 in [10] (Mouse 3); 1.24 in assay [10] (Mouse 4); 1.54 in assay [10] (Mouse 5).
For “KYQAEGQLQWLNRRANALLANGVELRDNQL (also: KLH conjugate via diazobenzidine; listed as Homo sapiens) [Example 3, synthetic peptide originating from human TNFα, K and Y added, coupled to KLH]”, the “average absorbance, ELISA native TNFα” value in assay [11] (Average of 5 mice) is listed as 1.31; in assay [11] (Mouse 1), 1.64; in assay [11] (Mouse 2), 1.14; in assay [11] (Mouse 3) it was 1.96; in assay [11] (Mouse 4), 1.02; in assay [11] (Mouse 5), 0.78. Further, the “percentage inhibition of the lysis (neutralization of the TNFα)” value in assay [12] (Average of 5 mice, serum diluted 1/200th) is 61%; in assay [12] (Mouse 1, serum diluted 1/200th), 88%; in assay [12] (Mouse 2, serum diluted 1/200th), 12%; in assay [12] (Mouse 3, serum diluted 1/200th), 93%; in [12] (Mouse 4, serum diluted 1/200th) it was 36%; in [12] (Mouse 5, serum diluted 1/200th) it was 79%. In addition, the “neutralization of the TNFα, result in words” value in assay [12] (serum of immunized mice vs controls) is listed as “responses are observed for the immunized mice”.
